Source: PMC5340008 (BMC Biochemistry, 2017)

Molecular target: Bacillus anthracis Bla1 β-lactamase (Bacillus anthracis)

BLIP [change], sequence (P35804 37-201 Y86A): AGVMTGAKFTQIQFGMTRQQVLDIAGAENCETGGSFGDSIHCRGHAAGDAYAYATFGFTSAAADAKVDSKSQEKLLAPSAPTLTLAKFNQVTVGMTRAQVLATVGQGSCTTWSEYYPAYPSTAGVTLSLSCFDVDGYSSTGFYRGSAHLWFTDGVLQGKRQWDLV

**Q.** With “BLIP [change] (from UniProt P35804 37-201) (natural protein)” as the substance, how does the Ki read?
**A.** 1.2 nM
